# Source: patent US20240309087A1 (SHANGHAI JUNSHI BIOSCIENCES, published 2024)
# Values joined by “and” are separate entries in the source; they are usually repeats but may differ in a detail not shown here. Identical values can stand only once.
# T1: human CD112R on Jurkat CD112R effector cells (human, UniProt Q6DKI7 1-326)
# T1 sequence (looked up): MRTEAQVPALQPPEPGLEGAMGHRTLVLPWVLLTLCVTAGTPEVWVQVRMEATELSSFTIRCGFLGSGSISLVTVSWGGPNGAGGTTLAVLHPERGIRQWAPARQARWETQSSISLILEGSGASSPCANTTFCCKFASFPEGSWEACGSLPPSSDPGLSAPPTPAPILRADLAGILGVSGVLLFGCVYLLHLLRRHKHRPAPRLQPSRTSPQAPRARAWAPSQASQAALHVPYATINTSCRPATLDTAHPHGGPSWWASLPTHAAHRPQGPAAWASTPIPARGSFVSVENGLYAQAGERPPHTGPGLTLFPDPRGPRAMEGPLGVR
# T2: hCD112R mFC recombinant protein (human; murine, UniProt Q6DKI7 41-160)
# T2 construct: range 41-160; expressed in 293E cells; also called hCD112R ECD mFC; hCD112R-ECD-mFC; not shown: murine IgG2a Fc domain (MX2-mFc vector)
# T2 sequence (looked up): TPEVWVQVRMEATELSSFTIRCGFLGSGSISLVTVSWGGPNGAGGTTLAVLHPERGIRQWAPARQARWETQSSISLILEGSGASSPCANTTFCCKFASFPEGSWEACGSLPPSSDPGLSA
# Experiments:
# [1] = molecular target: T1, human CD112R on Jurkat CD112R effector …; test: cell-based or functional assay
# [2] = molecular target: T2, hCD112R mFC recombinant protein; test: ELISA, coated hCD112R-ECD-mFC
# Description: (§1) A plate was coated with a hCD112R-ECD-mFC protein (1.5 μg/mL) at a fixed concentration, and the humanized anti-CD112R antibodies diluted in a gradient (initial concentration: 1 μg/mL, 2.5-fold gradient dilution, 12 concentration gradients in total) were added to bind to the antigen. HRP-conjugated goat anti-human antibody IgG (Fc specific) (Sigma, A0170) was subjected to a 5000-fold dilution and used as a detection antibody for detection. The color development was performed with 0.1 mg/mL TMB, and finally stopped with 2 M hydrochloric acid. The plate was read at 420 nm/620 nm. EC₅₀ was obtained by fitting with a four-parameter logistic regression (4PL) model. The […] were COM701 (anti-CD112R antibody, Compugen, obtained by expression and purification according to the sequences in US20180280506A1) and the anti-KLH hu-IgG4 antibody.
# [3] = molecular target: T2, hCD112R mFC recombinant protein; test: FACS competition, hCD112R mFc on CHO CD112 cells
# Description: (§2) Cells CHO CD112 overexpressing human CD112 were co-incubated with a hCD112R mFc protein solution (5 μg/mL) prepared in a staining buffer (PBS+1% FBS), and the humanized anti-CD112R antibodies or the control antibodies at different concentrations (initial concentration: 100 μg/mL, 3-fold dilution, 10 concentration gradients) at 4° C. for 30 min. Unbound antibodies were then washed with a staining buffer and the cells were incubated with 1% (v/v) goat anti-mouse IgG Fc fluorescent secondary antibodies (Jackson ImmunoResearch) prepared in a staining buffer at 4° C. for 30 min in the dark. Finally, the cells were collected by using a flow cytometer (BD Canto II), and the fluorescent antibodies bound to the cell surface were detected. Raw data were analyzed by using FlowJo to obtain MFI values, and a four-parameter curve fitting was performed by using GraphPad Prism software to obtain IC₅₀ values. The positive control and the negative control were COM701 (anti-CD112R antibody, Compugen, obtained by expression and purification according to the sequences in US20180280506A1) and the anti-KLH hu-IgG4 antibody, respectively.
# [4] = molecular target: T2, hCD112R mFC recombinant protein; test: ELISA, coated hCD112R-ECD-mFC; EC50 COM701/EC50 antibody
# Description: as §1
# [5] = molecular target: T2, hCD112R mFC recombinant protein; test: FACS competition, hCD112R mFc on CHO CD112 cells; IC50 COM701/IC50 antibody
# Description: as §2
Binder,"EC50, CD112R/CD112 reporter [1] [µg/mL]","Relative activity (%), EC50 COM701/EC50 antibody [1] [%]",EC50 [2] [µg/mL],IC50 [3],Relative activity (%) [4] [%],Relative activity (%) [5] [%]
"Hu37 (antibody, IgG4, V domains shown) VH: EVQLVESGGGLVQPGGSLRLSCAASGFTFSSYHMSWVRQAPGKGLELVSAINSNVISTYYLDTVKGRFTISRDNAKNSLYLQMNSLRAEDTAVYYCARHEDYYGFAMDYWGQGTLVTVSS VL: DIVMTQSPDSLAVSLGERATINCKASQSVTNDVAWYQQKPGQPPKLLIYYVSNHYTGVPDRFSGSGSGTDFTLTISSLQAEDVAVYFCQQAYRSPWTFGQGTKLEIK",0.0355,182,,,,
"Hu1 (antibody, IgG4, V domains shown, humanized IgG4; also called Hu-01) VH: EVQLVESGGGLVQPGGSLRLSCAASGFTFSSYHMSWVRQAPGKGLELVAAINSNDINTYYLDTVKGRFTISRDIAKNSLYLQMNSLRAEDTAVYYCARHEDYYGFAMDYWGQGTLVTVSS VL: DIVMTQSPDSLAVSLGERATINCKASQSVTNDVAWYQQKPGQPPKLLIYYVSNHYTGVPDRFSGSGSGTDFTLTISSLQAEDVAVYFCQQAYRSPWTFGQGTKLEIK",0.0688,92,0.00276,4.31 µg/mL,154,92.2
"Hu40 (antibody, IgG4, V domains shown) VH: EVQLVESGGGLVQPGGSLRLSCAASGFTFSSYHMSWVRQAPGKGLELVSAINSNVISTYYLDTVKGRFTISRDNAKNSLYLQMNSLRAEDTAVYYCARHEDYYGFAMDYWGQGTLVTVSS VL: DIVMTQSPDSLAVSLGERATINCKASQSVSNDVAWYQQKPGQPPKLLIYYVSHRFTGVPDRFSGSGSGTDFTLTISSLQAEDVAVYFCHQAYRSPWTFGQGTKLEIK",0.0242,227,,,,
"Hu43 (antibody, IgG4, V domains shown) VH: EVQLVESGGGLVKPGGSLRLSCAASGFTFSSYHMSWVRQAPGKGLELVSAINSNVISTYYLDTVKGRFTISRDNAKNSLYLQMNSLRAEDTAVYYCARHEDYYGFAMDYWGQGTLVTVSS VL: DIVMTQSPDSLAVSLGERATINCKASQSVTNDVAWYQQKPGQPPKLLIYYVSNHYTGVPDRFSGSGSGTDFTLTISSLQAEDVAVYFCQQAYRSPWTFGQGTKLEIK",0.0426,158,,,,
"Hu46 (antibody, IgG4, V domains shown) VH: EVQLVESGGGLVKPGGSLRLSCAASGFTFSSYHMSWVRQAPGKGLELVSAINSNVISTYYLDTVKGRFTISRDNAKNSLYLQMNSLRAEDTAVYYCARHEDYYGFAMDYWGQGTLVTVSS VL: DIVMTQSPDSLAVSLGERATINCKASQSVSNDVAWYQQKPGQPPKLLIYYVSHRFTGVPDRFSGSGSGTDFTLTISSLQAEDVAVYFCHQAYRSPWTFGQGTKLEIK",0.0269,249,,,,
"Hu18 (antibody, IgG4, V domains shown, humanized IgG4) VH: EVQLVESGGGLVKPGGSLRLSCAASGFTFSSYHMSWVRQAPGKGLELVSAISRDGDSTYYPDTVKGRFTISRDNAKNSLYLQMNSLRAEDTAVYYCSRHEDYFGFAMDSWGQGTLVTVSS VL: EIVMTQSPPTLSLSPGERVTLSCKASQSVSNDVAWYQQKPGQAPRLLIYYVSNRFTGIPARFSGSGSGTDFTLTISSLQPEDFAVYFCQQAYRSPWTFGQGTKLEIK",0.0263,209,0.00466,3.39 µg/mL and 2.51 µg/mL,122,
"Hu38 (antibody, IgG4, V domains shown) VH: EVQLVESGGGLVQPGGSLRLSCAASGFTFSSYHMSWVRQAPGKGLELVSAINSNVISTYYLDTVKGRFTISRDNAKNSLYLQMNSLRAEDTAVYYCARHEDYYGFAMDYWGQGTLVTVSS VL: AIQMTQSPSSLSASVGDRVTITCKASQSVTNDVAWYQQKPGKAPKLLIYYVSNHYTGVPSRFSGSGSGTDFTLTISSLQPEDFATYFCQQAYRSPWTFGQGTKLEIK",0.0337,192,,,,
"Hu41 (antibody, IgG4, V domains shown) VH: EVQLVESGGGLVQPGGSLRLSCAASGFTFSSYHMSWVRQAPGKGLELVSAINSNVISTYYLDTVKGRFTISRDNAKNSLYLQMNSLRAEDTAVYYCARHEDYYGFAMDYWGQGTLVTVSS VL: DIQMTQSPSSLSASVGDRVTITCKASQSVSNDVAWYQQKPGKAPKLLIYYVSNRFTGVPSRFSGSGSGTDFTLTISSLQPEDFATYFCQQAYRSPWTFGQGTKLEIK",0.0267,243,,,,
"Hu44 (antibody, IgG4, V domains shown) VH: EVQLVESGGGLVKPGGSLRLSCAASGFTFSSYHMSWVRQAPGKGLELVSAINSNVISTYYLDTVKGRFTISRDNAKNSLYLQMNSLRAEDTAVYYCARHEDYYGFAMDYWGQGTLVTVSS VL: AIQMTQSPSSLSASVGDRVTITCKASQSVTNDVAWYQQKPGKAPKLLIYYVSNHYTGVPSRFSGSGSGTDFTLTISSLQPEDFATYFCQQAYRSPWTFGQGTKLEIK",0.0387,174,,,,
"Hu47 (antibody, IgG4, V domains shown) VH: EVQLVESGGGLVKPGGSLRLSCAASGFTFSSYHMSWVRQAPGKGLELVSAINSNVISTYYLDTVKGRFTISRDNAKNSLYLQMNSLRAEDTAVYYCARHEDYYGFAMDYWGQGTLVTVSS VL: DIQMTQSPSSLSASVGDRVTITCKASQSVSNDVAWYQQKPGKAPKLLIYYVSNRFTGVPSRFSGSGSGTDFTLTISSLQPEDFATYFCQQAYRSPWTFGQGTKLEIK",0.039,190,,,,
"Hu39 (antibody, IgG4, V domains shown) VH: EVQLVESGGGLVQPGGSLRLSCAASGFTFSSYHMSWVRQAPGKGLELVSAINSNVISTYYLDTVKGRFTISRDNAKNSLYLQMNSLRAEDTAVYYCARHEDYYGFAMDYWGQGTLVTVSS VL: EIVMTQSPPTLSLSPGERVTLSCKASQSVSNDVAWYQEKPGQAPRLLIYYVSHRFTGIPARFSGSGSGTDFTLTISSLQPEDFAVYYCHQAYRSPWTFGQGTKLEIK",0.0217,254,,,,
"Hu42 (antibody, IgG4, V domains shown) VH: EVQLVESGGGLVQPGGSLRLSCAASGFTFSSYHMSWVRQAPGKGLELVSAINSNVISTYYLDTVKGRFTISRDNAKNSLYLQMNSLRAEDTAVYYCARHEDYYGFAMDYWGQGTLVTVSS VL: EIVMTQSPPTLSLSPGERVTLSCKASQSVSNDVAWYQQKPGQAPRLLIYYVSNRFTGIPARFSGSGSGTDFTLTISSLQPEDFAVYFCQQAYRSPWTFGQGTKLEIK",0.0355,183,,,,
"Hu45 (antibody, IgG4, V domains shown) VH: EVQLVESGGGLVKPGGSLRLSCAASGFTFSSYHMSWVRQAPGKGLELVSAINSNVISTYYLDTVKGRFTISRDNAKNSLYLQMNSLRAEDTAVYYCARHEDYYGFAMDYWGQGTLVTVSS VL: EIVMTQSPPTLSLSPGERVTLSCKASQSVSNDVAWYQEKPGQAPRLLIYYVSHRFTGIPARFSGSGSGTDFTLTISSLQPEDFAVYYCHQAYRSPWTFGQGTKLEIK",0.0256,261,,,,
"Hu48 (antibody, IgG4, V domains shown) VH: EVQLVESGGGLVKPGGSLRLSCAASGFTFSSYHMSWVRQAPGKGLELVSAINSNVISTYYLDTVKGRFTISRDNAKNSLYLQMNSLRAEDTAVYYCARHEDYYGFAMDYWGQGTLVTVSS VL: EIVMTQSPPTLSLSPGERVTLSCKASQSVSNDVAWYQQKPGQAPRLLIYYVSNRFTGIPARFSGSGSGTDFTLTISSLQPEDFAVYFCQQAYRSPWTFGQGTKLEIK",0.0421,176,,,,
